Test results taken from the RNAGym collection of RNA variant scans (doi:10.7554/elife.90254).

B1: LINE1-mini (parent)
chain: GGCAGAGCUCAACACAGCGUGGCAAAGUGGCUGUGGCUAGACUGCC

Variants of: B1
Test: self-cleavage, relative activity (ratio to wild type); higher = more cleavage; in vitro, sequencing; the parent is a self-cleaving ribozyme
Variant A14U U38G has a self-cleavage of 0.06. G40C gave a self-cleavage of 0.09. A39G G44U showed a self-cleavage of 0.22. Variant C15A A24C has a self-cleavage of 0.04. For G17A G27C, the self-cleavage was 0.19. Work on G22C A25G yielded a self-cleavage of 1.07. A6C A14U gave a self-cleavage of 0.22. With G17C C37U the self-cleavage was 0.08. G19A G40U showed a self-cleavage of 0.16. Variant A11C G30C has a self-cleavage of 0.04. A6C U32C showed a self-cleavage of 0.05. Variant A16U G17C has a self-cleavage of 0.2. Work on A12G U34A yielded a self-cleavage of 0.03. With U20A C46A the self-cleavage was 0.76. Variant G7U A26G has a self-cleavage of 0.05. G21C G29A showed a self-cleavage of 0.5. A24C G29A showed a self-cleavage of 1.02. For C8U C23A, the self-cleavage was 0.21. With G40A C42U the self-cleavage was 0.09. Variant A16U C18G has a self-cleavage of 0.05. For C10U G44A, the self-cleavage was 0.15. Variant G2C G27A has a self-cleavage of 0.13. C10G G17U gave a self-cleavage of 0.07. Work on G5U A6U yielded a self-cleavage of 0.16. For C15U G36U, the self-cleavage was 0.12. C8A G19U gave a self-cleavage of 0.11. In the case of C10G A24C, the self-cleavage is reported as 0.06. Work on G19U C46G yielded a self-cleavage of 0.71. G17A G44U gave a self-cleavage of 0.03. Work on A39C C45U yielded a self-cleavage of 0.24. G21C A24C showed a self-cleavage of 0.43. In the case of A4C C31G, the self-cleavage is reported as 0.06. In the case of C8G A24G, the self-cleavage is reported as 0.15. A26U G29U showed a self-cleavage of 1.61. G29C G36C showed a self-cleavage of 0.05. In the case of C3A C13A, the self-cleavage is reported as 0.25. Work on C13A G35U yielded a self-cleavage of 1.13. With A4G C31U the self-cleavage was 0.14. C8U A39U showed a self-cleavage of 0.09. C42G U43A gave a self-cleavage of 0.06. Variant C15A has a self-cleavage of 0.1. Work on G22U A26U yielded a self-cleavage of 1.59. In the case of C23G C31A, the self-cleavage is reported as 0.09. In the case of A6C C46G, the self-cleavage is reported as 0.46. C3G A24U gave a self-cleavage of 0.72. G2U A4G showed a self-cleavage of 0.12. C3G U9G gave a self-cleavage of 0.3. For C18U G22C, the self-cleavage was 1.47. G5U G44U showed a self-cleavage of 0.06. In the case of G29A, the self-cleavage is reported as 0.88. G5A G44C gave a self-cleavage of 0.06. With G33C C46G the self-cleavage was 0.05. For C8G U20C, the self-cleavage was 0.08. C3U A6U showed a self-cleavage of 0.38. With A26U U38C the self-cleavage was 0.48. For A16U G44U, the self-cleavage was 0.03. Work on G17C C23A yielded a self-cleavage of 1.07. For C13A A41U, the self-cleavage was 0.14. A16C U32G gave a self-cleavage of 0.4. With A16G G30A the self-cleavage was 0.67. Work on G36A C42U yielded a self-cleavage of 0.15. Variant C13A C23A has a self-cleavage of 0.16. Variant A16U U43C has a self-cleavage of 0.04. In the case of G22A G33A, the self-cleavage is reported as 0.52. Work on G1C A12U yielded a self-cleavage of 0.06. With G17A U34G the self-cleavage was 0.02. In the case of C13U C15U, the self-cleavage is reported as 0.13. A12C A26G gave a self-cleavage of 0.01. In the case of G1U G21U, the self-cleavage is reported as 0.41. C13U gave a self-cleavage of 0.17. Work on C15A U20G yielded a self-cleavage of 0.08. Variant A12C U28A has a self-cleavage of 0.02. For A12C U43A, the self-cleavage was 0.03. Variant G7A A26U has a self-cleavage of 0.21. In the case of C3A C42A, the self-cleavage is reported as 0.33. Variant G7C G30A has a self-cleavage of 0.13. Variant A11G A14C has a self-cleavage of 0.02. With C10U C18G the self-cleavage was 0.22. C18A G33A gave a self-cleavage of 0.03. In the case of C3G A16C, the self-cleavage is reported as 0.12. Variant G17A G33U has a self-cleavage of 0.02. C18A U28A showed a self-cleavage of 0.7. A11G A39G gave a self-cleavage of 0.03. Variant U9A C37A has a self-cleavage of 0.21. Work on G21A C45G yielded a self-cleavage of 0.26. C8U G33A gave a self-cleavage of 0.15. G21U C37G gave a self-cleavage of 0.04. Work on G7U A24G yielded a self-cleavage of 0.06. C31G C45G showed a self-cleavage of 0.04. G21A U43C showed a self-cleavage of 0.18. A12G G19A showed a self-cleavage of 0.17. Work on A26G G35A yielded a self-cleavage of 0.1. For C3U C10G, the self-cleavage was 0.03. G5C A14C gave a self-cleavage of 0.07. Variant C13U G35A has a self-cleavage of 0.71. A11C C45G gave a self-cleavage of 0.02. C10U A25C gave a self-cleavage of 0.21. With G27A U28G the self-cleavage was 0.4. G2C U43A gave a self-cleavage of 0.04. Work on A14C G36U yielded a self-cleavage of 0.09. In the case of A4G G40U, the self-cleavage is reported as 0.15. C13A G30U showed a self-cleavage of 0.11. Work on G33C G40U yielded a self-cleavage of 0.06. With G19C G44A the self-cleavage was 0.15. C37U U38A gave a self-cleavage of 0.04. A4C U20C gave a self-cleavage of 0.05. Work on C37A U43C yielded a self-cleavage of 0.05. In the case of C8G C15G, the self-cleavage is reported as 0.05. Variant A26U C37G has a self-cleavage of 0.05. With C31A G36U the self-cleavage was 0.12. Variant G1C U9C has a self-cleavage of 0.03. For A6G C10U, the self-cleavage was 0.04. G19A C37U showed a self-cleavage of 0.05. For C31U C42U, the self-cleavage was 0.09. For A4U G30U, the self-cleavage was 0.22. Variant A12G G36A has a self-cleavage of 0.06. A4C G29U showed a self-cleavage of 0.45. A11G G21U showed a self-cleavage of 0.03. G1C C13G gave a self-cleavage of 0.04. For C3G A14U, the self-cleavage was 0.32. Work on G44U C45G yielded a self-cleavage of 0.17. In the case of G7U A12C, the self-cleavage is reported as 0.02. In the case of G17A C31A, the self-cleavage is reported as 0.13. For G2A C10G, the self-cleavage was 0.11. In the case of C8G C45G, the self-cleavage is reported as 0.08. With A25C C45G the self-cleavage was 0.11. Work on G1A C8U yielded a self-cleavage of 0.78. C8U U38A gave a self-cleavage of 0.27. For G7U U38G, the self-cleavage was 0.03. In the case of U28G C45G, the self-cleavage is reported as 0.27. C15A G33A showed a self-cleavage of 0.11. Work on G27A G30U yielded a self-cleavage of 1.61. With A14G A39G the self-cleavage was 0.1. U20A U43A showed a self-cleavage of 0.08. G30U C46A gave a self-cleavage of 1.42. Work on C8A C37A yielded a self-cleavage of 0.12. Variant A24C C31A has a self-cleavage of 0.06. Variant G7U U32A has a self-cleavage of 0.08. Work on C13G C42G yielded a self-cleavage of 0.09. With G35C U43G the self-cleavage was 0.09. C13U G35U gave a self-cleavage of 0.18. In the case of G1C C45G, the self-cleavage is reported as 0.16. G27U C42G showed a self-cleavage of 0.04. For A25C U34C, the self-cleavage was 0.08. In the case of C18A G29A, the self-cleavage is reported as 0.69. A6C G35A showed a self-cleavage of 0.08. G17C U32A showed a self-cleavage of 0.07. With A25G G27C the self-cleavage was 0.16. With C15U G22C the self-cleavage was 0.53. Work on G22C C45A yielded a self-cleavage of 0.39. Variant G2A C18U has a self-cleavage of 0.46. G7A U43G showed a self-cleavage of 0.57. Variant A14U C23G has a self-cleavage of 0.15. Variant G27A U28C has a self-cleavage of 0.87. G7C A25U gave a self-cleavage of 0.16. G22C U34C gave a self-cleavage of 0.17. U9A A25U gave a self-cleavage of 0.15. G35C U43A showed a self-cleavage of 0.11. Variant A11G G40C has a self-cleavage of 0.02. For A14G G22A, the self-cleavage was 0.34. In the case of U9G C18G, the self-cleavage is reported as 0.04. For C15U U20G, the self-cleavage was 0.49. In the case of G29A U32A, the self-cleavage is reported as 0.4. With C8G U9G the self-cleavage was 0.12. In the case of G29A G30U, the self-cleavage is reported as 1.41. Work on G33A G36A yielded a self-cleavage of 0.12. In the case of G17U U32G, the self-cleavage is reported as 0.09.
